# Measured values taken from US20090182306A1, “Microneedle Devices and Methods of Drug Delivery or Fluid Withdrawal” (Georgia Tech Research Corporation, priority 2006, published 2009).
# Experiments:
# [1] = In vivo delivery of human growth hormone in hairless rats; conditions: subcutaneous injection of 196 μg
# Experimental: Microneedle devices were prepared as described in Example 3. The microneedles and base substrate were both made of CMC and, in some cases, 50% trehalose was included in the formulation too. Human growth hormone (Pfizer) was added to the microneedles at a content of 191-249 μg per 100-needle array. The ratio of growth hormone to matrix material (i.e., CMC or CMC plus trehalose) was 1 to 9. Microneedles were inserted into the skin of hairless rats (Charles River Laboratories). The microneedles inserted easily by hand and were left in place for 24 hours. Minimal skin irritation was seen after microneedle use. A positive control group was included, in which rats received subcutaneous injection of 196 μg of human growth hormone. Blood was drawn periodically and assayed using an ELISA kit specific for human growth hormone without cross-reactivity with rat growth hormone (Diagnostic Systems Laboratories, Webster, Tex.).
# [2] = Lysozyme secondary structure by circular dichroism after encapsulation and storage; assay type: physicochemical
# Experimental: The secondary structure of the model drug lysozyme was examined by spectropolarimetry (JASCO, J-810, Tokyo, Japan) after encapsulation and release from dissolving microneedles produced in accordance with Example 3. CMC pyramidal microneedle devices weighing 5 mg that encapsulated lysozyme at a mass fraction of 5 wt % were completely dissolved in […] PBS at room temperature for 10 min and filtered by centrifugal filtration (Centricon YM-50, Millipore, Bedford, Mass., USA) at 1000×g and room temperature for 10 min to isolate lysozyme (14.3 kDa) from the dissolved CMC matrix material (90 kDa average molecular mass). After determining lysozyme concentration, PBS was added to dilute the lysozyme to 20 μg/ml. CD spectra were taken for (1) untreated lysozyme, (2) lysozyme encapsulated in microneedles that were dissolved 1 h after fabrication, (3) lysozyme encapsulated in microneedles that were dissolved after 60 days of storage at ambient conditions (23±2° C. and 38±5% relative humidity), and (4) lysozyme thermally treated at 80° C. for 30 min to cause irreversible denaturation.
# [3] = Lysozyme enzymatic activity (EnzCheck lysozyme assay kit) after encapsulation and storage; assay type: biochemical
# Experimental: Enzymatic activity of lysozyme encapsulated within CMC microneedle devices was tested with EnzCheck lysozyme assay kit (Molecular Probes). Microneedle devices weighing 5 mg that contained lysozyme encapsulated at a concentration of 5 wt % were completely dissolved in PBS at room temperature for 10 min. PBS was added to dilute each sample to 0.05 μg/ml lysozyme and 0.95 μg/ml CMC. Lysozyme activity was assayed using 1 ml solution samples for: (1) untreated lysozyme, (2) untreated lysozyme (0.05 μg) and CMC hydrogel (0.95 μg) mixed, and dissolved together, (3) lysozyme encapsulated in microneedles that were dissolved 1 h after fabrication, and (4) lysozyme encapsulated in microneedles that were dissolved after 60 days of storage at ambient conditions.
Substance,time of serum concentration peak [1],protein structure (CD) ([2]; after storage of microneedle patches for 2 months at room temperature),"change in protein secondary structure (CD) ([2]; encapsulated in microneedle patch, then released by dissolution, versus untreated lysozyme)","secondary structure (CD), positive control ([2]; thermally treated at 80° C. for 30 min)","loss of enzymatic activity compared to untreated enzyme ([3]; encapsulated in microneedles, dissolved in PBS)",retained enzymatic activity ([3]; released from microneedles after two months of storage) [%],change in lysozyme activity ([3]; untreated lysozyme mixed with dissolved CMC microneedle containing no lysozyme)
growth hormone: Human growth hormone (Pfizer),within about one hour,–,–,–,–,–,–
lysozyme: model drug (14.3 kDa) encapsulated at 5 wt % in CMC microneedle devices,–,unchanged,no detectable change,extensive degradation of secondary structure,no loss of enzymatic activity,96,no change in lysozyme activity
